# Assay results: patent US9964541B2, “Method and devices for capturing circulating tumor” (THE BOARD OF TRUSTEES OF THE UNIVERSITY OF ILLINOIS, priority 2009, dated 2018)
# Test system: P-selectin antibody
# Test: SPR antibody binding to oriented versus randomly immobilized P-selectin
# Conditions: 20 μg/mL P-selectin antibody, 20 μL/min; compared to randomly immobilized P-selectin, comparable amounts immobilized
# Procedure: Enhanced controllability of surfaces by covalent immobilization: Previously, we have shown the surfaces with covalently immobilized P-selectin present enhanced functional stability by approximately 10 times, as compared to those with physisorbed P-selectin. The surface stability was assessed using cell-mimicking microspheres as well as live neutrophils. We also developed immobilization chemistries (as shown FIG. 5) on gold coated, […] PEGylated surfaces to employ the flow-based SPR technique that quantitatively analyze the surface functions, offering: 1) easy surface functionalization using thiol chemistries due to the presence of a gold layer and 2) quantitative and real time monitoring of binding events without any modification of analytes. Thus, the SPR technique is useful particularly for determining controllability of density and orientation of P-selectin. The chemistries described in FIG. 5 were developed to achieve non-fouling surfaces and to provide reactive sites for subsequent P-selectin immobilization using oligo(ethylene glycol)-alkanethiols (Prochimia, Poland) on gold coated SPR chips. Briefly, the gold chip surface was cleaned before the subsequent formation of mixed self assembled monolayers (SAMs) by washing with absolute ethanol and drying by nitrogen blowing. […]
molecule,measurement,value
"oriented P-selectin: P-selectin biotinylated at its single cysteine, immobilized through biotin-streptavidin binding on OEG-biotin SAM (protein, UniProt P16109 42-830, looked up, biotinylated at cysteine) P-selectin: WTYHYSTKAYSWNISRKYCQNRYTDLVAIQNKNEIDYLNKVLPYYSSYYWIGIRKNNKTWTWVGTKKALTNEAENWADNEPNNKRNNEDCVEIYIKSPSAPGKWNDEHCLKKKHALCYTASCQDMSCSKQGECLETIGNYTCSCYPGFYGPECEYVRECGELELPQHVLMNCSHPLGNFSFNSQCSFHCTDGYQVNGPSKLECLASGIWTNKPPQCLAAQCPPLKIPERGNMTCLHSAKAFQHQSSCSFSCEEGFALVGPEVVQCTASGVWTAPAPVCKAVQCQHLEAPSEGTMDCVHPLTAFAYGSSCKFECQPGYRVRGLDMLRCIDSGHWSAPLPTCEAISCEPLESPVHGSMDCSPSLRAFQYDTNCSFRCAEGFMLRGADIVRCDNLGQWTAPAPVCQALQCQDLPVPNEARVNCSHPFGAFRYQSVCSFTCNEGLLLVGASVLQCLATGNWNSVPPECQAIPCTPLLSPQNGTMTCVQPLGSSSYKSTCQFICDEGYSLSGPERLDCTRSGRWTDSPPMCEAIKCPELFAPEQGSLDCSDTRGEFNVGSTCHFSCDNGFKLEGPNNVECTTSGRWSATPPTCKGIASLPTPGVQCPALTTPGQGTMYCRHHPGTFGFNTTCYFGCNAGFTLIGDSTLSCRPSGQWTAVTPACRAVKCSELHVNKPIAMNCSNLWGNFSYGSICSFHCLEGQLLNGSAQTACQENGHWSTTVPTCQAGPLTIQEALTYFGGAVASTIGLIMGGTLLALLRKRFRQKDDGKCPLNPHSHLGTYGVFTNAAFDPSP",antibody binding response,significantly greater binding response
